What was measured:
cMetECDHis [1] = target: T1, cMetECDHis (human, UniProt P08581 25-932, limits assumed, biotinylated in the cross-block ELISA of Example 17); assay: cross-block ELISA; competitor 005
T1 construct: Expressed in HEK-293F cells; also called soluble cMetECDHis; biotinylated cMetECDHis
Protocol: (§1) First, the optimal coating concentrations of the tested anti-c-Met antibodies and the optimal cMetECDHis concentration were determined. Therefore, ELISA wells were coated overnight at 4° C. with anti-c-Met HuMabs serially diluted in PBS (8 μg/mL in 2-fold dilutions). Next, the ELISA wells were washed with PBST (PBS supplemented with 0.05% Tween-20 [Sigma-Aldrich, Zwijndrecht, The Netherlands]) and blocked for one hour at room temperature (RT) with PBSTC (PBST supplemented 2% [v/v] chicken serum [Gibco, Paisley, Scotland]). Subsequently, the ELISA wells were washed with PBST and incubated for one hour at RT with biotinylated cMetECDHis serially diluted in PBSTC (1 μg/mL in 2-fold dilutions). Unbound biotinylated cMetECDHis was washed away with PBST, and bound biotinylated cMetECDHis was incubated for one hour at RT with 0.1 μg/mL Streptavidin-poly-HRP (Sanquin, Amsterdam, The Netherlands) diluted in PBST.
(§2) ELISA wells were coated with anti-c-Met antibody at a sub-optimal dose as described above. After blocking of the ELISA wells, they were incubated with the predetermined concentration of biotinylated cMetECDHis in the presence of an excess of anti-c-Met antibody. The reaction was developed as described above. Residual binding was expressed as a percentage relative to the binding observed in the absence of competitor antibody.

cMetECDHis [2] = target: T1, cMetECDHis; assay: cross-block ELISA; competitor 006
Protocol: as §1, §2

cMetECDHis [3] = target: T1, cMetECDHis; assay: cross-block ELISA; competitor 008
Protocol: as §1, §2

cMetECDHis [4] = target: T1, cMetECDHis; assay: cross-block ELISA; competitor 022
Protocol: as §1, §2

cMetECDHis [5] = target: T1, cMetECDHis; assay: cross-block ELISA; competitor 024
Protocol: as §1, §2

cMetECDHis [6] = target: T1, cMetECDHis; assay: cross-block ELISA; competitor 035
Protocol: as §1, §2

cMetECDHis [7] = target: T1, cMetECDHis; assay: cross-block ELISA; competitor 045
Protocol: as §1, §2

cMetECDHis [8] = target: T1, cMetECDHis; assay: cross-block ELISA; competitor 058
Protocol: as §1, §2

cMetECDHis [9] = target: T1, cMetECDHis; assay: cross-block ELISA; competitor 062
Protocol: as §1, §2

cMetECDHis [10] = target: T1, cMetECDHis; assay: cross-block ELISA; competitor 068
Protocol: as §1, §2

cMetECDHis [11] = target: T1, cMetECDHis; assay: cross-block ELISA; competitor 069
Protocol: as §1, §2

cMetECDHis [12] = target: T1, cMetECDHis; assay: cross-block ELISA; competitor 098
Protocol: as §1, §2

cMetECDHis [13] = target: T1, cMetECDHis; assay: cross-block ELISA; competitor 101
Protocol: as §1, §2

cMetECDHis [14] = target: T1, cMetECDHis; assay: cross-block ELISA; competitor 181
Protocol: as §1, §2

cMetECDHis [15] = target: T1, cMetECDHis; assay: cross-block ELISA; competitor 5D5
Protocol: as §1, §2

cMetECDHis [16] = target: T1, cMetECDHis; assay: cross-block ELISA; competitor G11-HZ
Protocol: as §1, §2

cMetECDHis [17] = target: T1, cMetECDHis; assay: BLI (Octet); antibody captured, cMetECDHis in solution
Protocol: Antibody binding to cMetECDHis was analyzed by means of Bio-Layer Interferometry (BLI) technology on the Octet System (Fortebio, Menlo Park, USA). Anti-human IgG coated biosensors (Fc-specific) were used to capture anti-c-Met antibodies according to the procedure recommended by the manufacturer. cMetECDHis derived from HEK293 cells was loaded on top of the immobilized anti-c-Met antibodies by placing the loaded biosensor into a well containing 10 μg/mL cMetECDHis diluted in 10 times diluted kinetics buffer (Fortebio). The difference in reflection of light (AA, nm) of the biosensor surface due to the binding of cMetECDHis was measured in real time during approximately 10 minutes and was used by the Octet software (V4.0, Fortebio) to calculate the association constant (kₐ [1/M×s]). Next, the loaded biosensor was placed into a well containing only kinetics buffer (10 times diluted in PBS) to determine the dissociation constant (kd [1/s]). Kinetics analysis was performed to determine the affinity (KD [M]) using model 1:1 (langmuir). As a positive control, 0.2 μg/mL 5D5 IgG1 produced in HEK293 cells, was used.

B1: anti-c-Met HuMab 035 (IgG1) (antibody, V domains shown)
VH: EVQLVQSGAEVKKPGESLKISCKGSGYSFTSYWIGWVRQMPGKGLEWMGIIYPGDSDTRYSPSFQGQVTISADKSISTAYLQWNSLKASDTAMYYCARQEITGEFDYWGQGTLVTVSS
VL: AIQLTQSPSSLSASVGDRVTITCRASQGISSALAWYQQKPGKAPKLLIYDASSLESGVPSRFSGSGSGTDFTLTISSLQPEDFATYYCQQFNSYPMYTFGQGTKLEIK
notes: also called P1016-035; TH1016-035-D09
residual binding, % of no competitor (cMetECDHis [1]): 36.7% | residual binding, % of no competitor (cMetECDHis [2]): 33% | residual binding, % of no competitor (cMetECDHis [3]): 7.2% | residual binding, % of no competitor (cMetECDHis [4]): 54.6% | residual binding, % of no competitor (cMetECDHis [5]): 121% | residual binding, % of no competitor (cMetECDHis [6]): 10.6% | residual binding, % of no competitor (cMetECDHis [7]): 125% | residual binding, % of no competitor (cMetECDHis [8]): 18.5% | residual binding, % of no competitor (cMetECDHis [9]): 120% | residual binding, % of no competitor (cMetECDHis [10]): 175% | residual binding, % of no competitor (cMetECDHis [11]): 151% | residual binding, % of no competitor (cMetECDHis [12]): 126% | residual binding, % of no competitor (cMetECDHis [13]): 113% | residual binding, % of no competitor (cMetECDHis [14]): 159% | residual binding, % of no competitor (cMetECDHis [15]): 25.5% | residual binding, % of no competitor (cMetECDHis [16]): 7.8% | Kd (cMetECDHis [17]): 13.9 nM | koff (cMetECDHis [17]): 0.00368 s⁻¹ | kon (cMetECDHis [17]): 264000 M⁻¹ s⁻¹

B2: anti-c-Met HuMab 045 (IgG1) (antibody, V domains shown)
VH: EVQLLESGGGLVQPGGSLRLSCAASGFTFSSYAMSWVRQAPGKGLEWVSVISGSGGITYYADSVKGRFTISRDNSKNTLYLQMNSLRAEDTAVYYCARDRGWGSDYWGQGTLVTVSS
VL: EIVLTQSPATLSLSPGERATLSCRASQSVSSYLAWYQQKPGQAPRLLIYDASNRATGIPARFSGSGSGTDFTLTISSLEPEDFAVYYCQQRSNWPFTFGPGTKVDIK
notes: also called TH1016-045; PC1016-045
residual binding, % of no competitor (cMetECDHis [1]): 111% | residual binding, % of no competitor (cMetECDHis [2]): 111% | residual binding, % of no competitor (cMetECDHis [3]): 98.5% | residual binding, % of no competitor (cMetECDHis [4]): 105% | residual binding, % of no competitor (cMetECDHis [5]): 102% | residual binding, % of no competitor (cMetECDHis [6]): 105% | residual binding, % of no competitor (cMetECDHis [7]): 21.3% | residual binding, % of no competitor (cMetECDHis [8]): 115% | residual binding, % of no competitor (cMetECDHis [9]): 103% | residual binding, % of no competitor (cMetECDHis [10]): 113% | residual binding, % of no competitor (cMetECDHis [11]): 97% | residual binding, % of no competitor (cMetECDHis [12]): 76.4% | residual binding, % of no competitor (cMetECDHis [13]): 102% | residual binding, % of no competitor (cMetECDHis [14]): 99.4% | residual binding, % of no competitor (cMetECDHis [15]): 27.8% | residual binding, % of no competitor (cMetECDHis [16]): 99.3% | Kd (cMetECDHis [17]): 2.87 nM | koff (cMetECDHis [17]): 0.00207 s⁻¹ | kon (cMetECDHis [17]): 721000 M⁻¹ s⁻¹

B3: IgG1-1016-069 (antibody, V domains shown)
VH: QVQLVQSGAEVKKPGASVKVSCETSGYTFTSYGISWVRQAPGHGLEWMGWISAYNGYTNYAQKLQGRVTMTTDTSTSTAYMELRSLRSDDTAVYYCARDLRGTNYFDYWGQGTLVTVSS
VL: DIQMTQSPSSVSASVGDRVTITCRASQGISNWLAWFQHKPGKAPKLLIYAASSLLSGVPSRFSGSGSGTDFTLTISSLQPEDFATYYCQQANSFPITFGQGTRLEIK
notes: also called clone 069; TH1016-069
residual binding, % of no competitor (cMetECDHis [1]): 102% | residual binding, % of no competitor (cMetECDHis [2]): 100% | residual binding, % of no competitor (cMetECDHis [3]): 102% | residual binding, % of no competitor (cMetECDHis [4]): 97.8% | residual binding, % of no competitor (cMetECDHis [5]): 6.6% | residual binding, % of no competitor (cMetECDHis [6]): 91.7% | residual binding, % of no competitor (cMetECDHis [7]): 99.8% | residual binding, % of no competitor (cMetECDHis [8]): 101% | residual binding, % of no competitor (cMetECDHis [9]): 2.2% | residual binding, % of no competitor (cMetECDHis [10]): 10.1% | residual binding, % of no competitor (cMetECDHis [11]): 2.4% | residual binding, % of no competitor (cMetECDHis [12]): 12.5% | residual binding, % of no competitor (cMetECDHis [13]): 3.9% | residual binding, % of no competitor (cMetECDHis [14]): 6.3% | residual binding, % of no competitor (cMetECDHis [15]): 99.4% | residual binding, % of no competitor (cMetECDHis [16]): 110% | Kd (cMetECDHis [17]): 1.26 nM | koff (cMetECDHis [17]): 0.000267 s⁻¹ | kon (cMetECDHis [17]): 212000 M⁻¹ s⁻¹
